Data on 1 molecule can be found in article PMC9978625, “Activation of protein arginine methyltransferase 1 and subsequent extension of moth lifespan is effected by the ROS/JNK/CREB signaling axis”.

The target of the data set is T1, CREB (Har-CREB) (Helicoverpa armigera, UniProt A0A3G1CVR7 1-265).
T1 sequence: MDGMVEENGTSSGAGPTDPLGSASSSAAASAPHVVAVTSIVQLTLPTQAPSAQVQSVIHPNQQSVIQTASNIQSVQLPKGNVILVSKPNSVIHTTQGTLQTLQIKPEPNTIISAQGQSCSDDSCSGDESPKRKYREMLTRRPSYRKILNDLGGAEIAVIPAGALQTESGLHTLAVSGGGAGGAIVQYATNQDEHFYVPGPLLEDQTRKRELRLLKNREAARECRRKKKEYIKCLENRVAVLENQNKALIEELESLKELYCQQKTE
Briefly: EMSA; shift competed by 100-fold unlabeled PS; EMSA (LightShift): 20 ul, 50 ng/ul poly(dI-dC), 2.5% glycerol, 5 mM MgCl2, 0.05% NP40, 20 fmol biotin probe, RT 20 min; pH and salt not stated. MPS (S22/S23) and NS competitors were tested only with brain nuclear extract without supershift, so not listed. The following applies: protein: ivt; chain copies: 2; blunt. On the technique in general: Mobility shift assays separate free from complexed probe on a gel.

B1: PS (PRMT1 promoter-specific probe) (dsDNA)
DNA 1: CGTTTTTGATATGAGGAAAATGAGCTCTGCAA
DNA 2: TTGCAGAGCTCATTTTCCTCATATCAAAAACG
Consider B1, for which the binding result was “binds”.
